Common to all, as to assay: purified protein
Substrate in data set [1]: CCCC(=O)O
To be noted: 10 mM ATP, 4 mM MnSO4, pH 7.5, 37 °C.

Substrate in data set [2]: CC(C)CC(=O)O
To be noted: 10 mM ATP, 4 mM MnSO4, pH 7.5, 37 °C.

Substrate in data set [3]: Nc1ncnc2c1ncn2[C@@H]1O[C@H](COP(=O)(O)OP(=O)(O)OP(=O)(O)O)[C@@H](O)[C@H]1O
The note with it: 200 mM butyrate, 4 mM MnSO4, pH 7.5, 37 °C, no ADP.

Substrate in data set [4]: CCCCC(=O)O
To be noted: 10 mM ATP, 4 mM MnSO4, pH 7.5, 37 °C.

Substrate in data set [5]: CC(C)C(=O)O
The note with it: 10 mM ATP, 4 mM MnSO4, pH 7.5, 37 °C.

As a reminder, the Km is the substrate concentration at which the rate is half of its maximum. For orientation: kcat means the maximal rate divided by the concentration of active sites. A word on the kcat/Km: it is the second-order rate constant that governs catalysis at low substrate concentration.

B1: LmBuk (Buk, butyrate kinase) (Listeria monocytogenes EGD-e) (protein)
chain: MSFDVLTINPGSTSTKLAVYQGDKVLFEETVRHTMQELADFNNVQEQFDFRWQVLRRVMDAHGYDVKKLQAVVGRGGLLRPVAGGTYMVTEKMIDDLKENKYGEHASNLGAMLAKKLADELTIPSFIVDPVVVDEMQEIARISGNAFVTRKSIFHALNHKAAGRKIAKELGKDYEKMNFVIAHLGGGISVAAHRQGKAVDVNNALDGDGPFSPERSGSLPMNDFLEACFSGKWTKRELHELIVGRGGMISYLGTNSMLEVEAKVQAGEEKAIEAFDAMAYQVSKEIGACSVVLQGKVDAIILTGGLARSELFTSKIIEQTNWITSVIIEPGEDELEALNSGVQRVLAGLEKEKEY
For the protein B1, the Km in “purified protein [1]” is given as 50.5 ± 5.8 mM; in “purified protein [2]” it was 57.1 ± 9.6 mM; in “purified protein [4]” it was 13.1 ± 3.3 mM; in “purified protein [5]”, 7.6 ± 1.3 mM. The kcat in “purified protein [1]” stood at 0.8367 ± 0.00667 s⁻¹; in the data set “purified protein [2]”, 0.417 s⁻¹; in the data set “purified protein [4]”, 1.2 ± 0.0367 s⁻¹; in the data set “purified protein [5]” it was 0.395 ± 0.00667 s⁻¹. Also, the kcat/Km turned out to be 16.5 M⁻¹ s⁻¹ in the data set “purified protein [1]”, 7.33 M⁻¹ s⁻¹ in “purified protein [2]”, 91.7 M⁻¹ s⁻¹ in “purified protein [4]” and 51.7 M⁻¹ s⁻¹ in the data set “purified protein [5]”. In the data set “purified protein [3]”, the K0.5 is on record as 3.18 mM.

Source of the values: PMC5263062.
